Laboratory results published in patent US8735553 (BEIGENE SWITZERLAND, dated 2014).

Legend:
[1] = molecular target: T1, wild-type human PD-1 recombinant protein (PD-1/His or PD-1/Fc, not said which) (human, UniProt Q15116 21-168); test: ELISA on coated recombinant PD-1; cell carries the * mark (Fab version); ELISA cell marked *
T1 construct: also called WT PD-1

[2] = molecular target: T2, human PD-1 expressed on cells (human, UniProt Q15116 25-288); test: FACS on PD-1-expressing cells
T2 construct: whole, on cells; also called HuT78/PD-1; NK92MI/PD-1

[3] = molecular target: T3, PD-1-EC/His (human, UniProt Q15116 21-168); test: SPR (BIAcore T-200), human PD-1/His coupled to CM5 chip, Fab injected
T3 construct: AA 1-168 includes the signal peptide; also called PD-1/His; human PD-1/His
Protocol: For affinity determinations of anti-PD-1 Fabs, SPR assays were used with the BIAcore™ T-200 instrument (GE Life Sciences). […] Association rates ($kon$) and dissociation rates ($koff$) were calculated using the one-to-one Langmuir binding model (BIA Evaluation Software, GE Life Sciences). The equilibrium dissociation constant (K_d) was calculated as the ratio $koff/kon$.

[4] = molecular target: T4, human FcγRI (human, UniProt P12314 16-374); test: flow cytometry, FcγR+ HEK293 cells
T4 construct: whole, on cells; also called FcγR1
Protocol: Binding of various IgG4 mutants to FcγRs was determined by flow cytometry. In brief, a series of HEK293 transfectants expressing human FcγRs were established. These transfectants expressed FcγRI, FcγRIIA, FcγRIIB or FcγRIIIA Multi-subunit FcγRs (i.e., FcγR1 and FcγRIIIA) were co-expressed with FcRγ. Polymorphic variants (i.e., FcγRIIA H131 and R131, FcγRIIIA F158 and V158) were also included.

[5] = molecular target: T2, human PD-1 expressed on cells; test: FACS on PD-1-expressing cells, goat anti-mouse IgG detection
[6] = molecular target: T2, human PD-1 expressed on cells; test: cell-based or functional assay
[7] = molecular target: P3Z chimeric PD-1 receptor (human); test: cell-based or functional assay
[8] = molecular target: T2, human PD-1 expressed on cells; test: cell-based or functional assay; remark: listed apart in the source
[9] = molecular target: P3Z chimeric PD-1 receptor (human); test: cell-based or functional assay; remark: listed apart in the source
[10] = molecular target: T2, human PD-1 expressed on cells; test: cell-based or functional assay; remark: listed apart in the source
[11] = molecular target: T2, human PD-1 expressed on cells; test: cell-based or functional assay; remark: listed apart in the source
[12] = molecular target: T2, human PD-1 expressed on cells; test: cell-based or functional assay; remark: listed apart in the source
[13] = molecular target: P3Z chimeric PD-1 receptor (human); test: cell-based or functional assay; remark: listed apart in the source

T2 sequence (Q15116 25-288): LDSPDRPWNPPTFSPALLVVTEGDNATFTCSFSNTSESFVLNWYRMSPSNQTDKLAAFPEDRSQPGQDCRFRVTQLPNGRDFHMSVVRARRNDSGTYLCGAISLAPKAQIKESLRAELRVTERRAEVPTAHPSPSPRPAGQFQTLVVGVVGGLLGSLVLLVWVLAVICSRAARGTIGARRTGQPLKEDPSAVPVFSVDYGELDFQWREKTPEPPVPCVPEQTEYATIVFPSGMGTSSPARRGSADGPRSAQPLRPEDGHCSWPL
Sequence of P3Z chimeric PD-1 receptor (human) (chain, as listed by the source mutant limits assumed): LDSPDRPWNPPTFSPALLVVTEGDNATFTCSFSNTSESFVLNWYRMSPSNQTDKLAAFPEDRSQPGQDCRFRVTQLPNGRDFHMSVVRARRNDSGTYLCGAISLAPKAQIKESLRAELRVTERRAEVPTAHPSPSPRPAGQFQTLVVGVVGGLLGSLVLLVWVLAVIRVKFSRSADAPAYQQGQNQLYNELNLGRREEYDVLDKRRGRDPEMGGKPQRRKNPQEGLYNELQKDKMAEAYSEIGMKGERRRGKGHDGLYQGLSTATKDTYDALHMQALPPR
T3 sequence (Q15116 21-168): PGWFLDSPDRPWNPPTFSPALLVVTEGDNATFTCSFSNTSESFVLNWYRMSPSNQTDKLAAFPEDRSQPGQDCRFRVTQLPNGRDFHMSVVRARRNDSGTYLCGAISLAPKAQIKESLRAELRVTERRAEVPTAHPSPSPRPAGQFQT
T1 sequence (Q15116 21-168 limits assumed): as the sequence (Q15116 21-168) above
T4 sequence (P12314 16-374): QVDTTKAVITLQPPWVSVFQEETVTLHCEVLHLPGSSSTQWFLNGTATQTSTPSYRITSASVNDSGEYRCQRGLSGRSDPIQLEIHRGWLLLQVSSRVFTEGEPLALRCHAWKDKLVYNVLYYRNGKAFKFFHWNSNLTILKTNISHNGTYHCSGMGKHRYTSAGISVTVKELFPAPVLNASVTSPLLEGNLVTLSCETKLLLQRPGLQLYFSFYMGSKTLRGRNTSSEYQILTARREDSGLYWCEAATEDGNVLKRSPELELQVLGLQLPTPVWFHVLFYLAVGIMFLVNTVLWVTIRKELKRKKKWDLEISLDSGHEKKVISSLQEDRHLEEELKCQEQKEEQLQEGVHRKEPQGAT

B1: hu326-4A3 Fab (Fab, V domains shown)
VH: QVQLVQSGSELKKPGASVKVSCKASGYTFTNYGMNWVRQAPGQGLKWMGWINNNNAEPTYAQDFRGRFVFSLDTSASTAYLQISSLKTEDTAVYYCARDVMDYWGQGTLVTVSS
VL: DIVLTQSPASLAVSPGQRATITCRASESVDNYGYSFMHWYQQKPGQPPKLLIYRASNLESGVPARFSGSGSGTDFTLTINPVEAEDTANYYCQQSKEYPTFGGGTKVEIK
notes: Fab: VH on human IgG2 CH1 (C232S, C233S, Kabat) with C-terminal c-Myc-His8 tag; also called hu326-4A3 (Fab version)
With B1 the EC50 [1] was 0.091 µg/mL.

B2: hu326-3B1 (antibody, V domains shown)
VH: QVQLVQSGSELKKPGASVKVSCKASGYTFTNYGMNWVRQAPGQGLKWMGWINNNNGEPTYAQDFRGRFVFSLDTSASTAYLQISSLKTEDTAVYYCARDVMDYWGQGTLVTVSS
VL: DIVLTQSPASLAVSPGQRATITCRASESVDNYGYSFMHWYQQKPGQPPKLLIYRASNLESGVPARFSGSGSRTDFTLTINPVEANDTANYYCQQSKEYPTFGGGTKVEIK
notes: Humanized mAb
B2 gave an EC50 [2] of 0.165 µg/mL.

B3: hu326-3G1 Fab (Fab, V domains shown)
VH: QVQLVQSGPELKKPGASVKVSCKASGYTFTNYGMNWVRQAPGQGLKWMGWINNNNGEPTYAQDFRGRFVFSLDTSASTAYLQISSLKTEDTAVYYCARDVMDYWGQGTLVTVSS
VL: DIVLTQSPASLAVSPGQRATITCRASESVDNYGYSFMHWYQQKPGQPPKLLIYRASNLESGVPARFSGSGSRTDFTLTINPVEANDTANYYCQQSKEYPTFGGGTKVEIK
notes: Fab: VH on human IgG2 CH1 (C232S, C233S, Kabat) with C-terminal c-Myc-His8 tag
For B3, the Kd [3] was 1 nM.

B4: hu317-4B6/IgG4mt6 (antibody)
heavy: QVQLQESGPGLVKPSETLSLTCTVSGFSLTSYGVHWIRQPPGKGLEWIGVIYADGSTNYNPSLKSRVTISKDTSKNQVSLKLSSVTAADTAVYYCARAYGNYWYIDVWGQGTTVTVSSASTKGPSVFPLAPCSRSTSESTAALGCLVKDYFPEPVTVSWNSGALTSGVHTFPAVLQSSGLYSLSSVVTVPSSSLGTKTYTCNVDHKPSNTKVDKRVESKYGPPCPPCPAPPVAGGPSVFLFPPKPKDTLMISRTPEVTCVVVAVSQEDPEVQFNWYVDGVEVHNAKTKPREEQFNSTYRVVSVLTVLHQDWLNGKEYKCKVSNKGLPSSIEKTISKAKGQPREPQVYTLPPSQEEMTKNQVSLTCLVKGFYPSDIAVEWESNGQPENNYKTTPPVLDSDGSFFLYSRLTVDKSRWQEGNVFSCSVMHEALHNHYTQKSLSLSLGK
VL: DIVMTQSPDSLAVSLGERATINCKSSESVSNDVAWYQQKPGQPPKLLINYAFHRFTGVPDRFSGSGYGTDFTLTISSLQAEDVAVYYCHQAYSSPYTFGQGTKLEIK
notes: Light chain constant region not restated for this format; copies: 2 + 2
B4 was tested, and the MFI [4] was 1 MFI.

B5: murine mAb 317 (antibody, V domains shown)
VH: QVQLKESGPGLVAPSKNLSITCTVSGFSLTSYGVHWIRQPPGKGLEWLGVIWAGGSTNYNSALMSRLSISKDNSRSQVFLRMNSLQTDDTAMYYCARAYGNYWYIDVWGAGTTVTVSS
VL: DIVMTQTPKFLLVSAGDRVTITCKASQSVSNDVAWYQQKPGQSPKLLINYAFHRFTGVPDRFTGSGYGTDFIFTISTVQAEDLAVYFCHQAYSSPYTFGGGTKLEMK
notes: Murine hybridoma antibody; also called mu317
In the case of B5, the EC50 [5] is reported as 0.11 µg/mL, the “IL-2 release, EC50 (HuT78/PD-1 + HEK293/OS8/PD-L1)” value [6] is reported as 0.083 µg/mL and the “Inhibition of IL-2 secretion, IC50 (HuT78/P3Z + HEK293/PD-L1)” value [7] is reported as 0.083 µ/ml. For the same binder, the “IFN-γ secreted, EC50 (NK92MI/PD-1 + SK-MES-1/PD-L1)” value [8] was 0.4 µg/mL, the “Assay-2 IL-2 release, IC50 (HuT78/P3Z + HEK293/PD-L1)” value [9] was 0.11 µg/mL and the “Assay-2 IL-2 release, Max inhibition (HuT78/P3Z + HEK293/PD-L1)” value [9] was 99.5%. For the same binder, the “Assay-1 IL-2 release, EC50 (HuT78/PD-1 + HEK293/OS8/PD-L1)” value [10] was 0.11 µg/mL, the “Assay-1 IL-2 release, Top line (HuT78/PD-1 + HEK293/OS8/PD-L1)” value [10] was 346 pg/mL and the “Cytotoxicity of NK92MI/PD-1 cells against SK-MES-1/PD-L1, EC50” value [11] was 0.5 µg/mL. For the same binder, the “IL-2 release, EC50 (HuT78/PD-1 + HEK293/OS8/PD-L2)” value [12] was 0.032 µg/mL and the “Inhibition of IL-2 secretion, IC50 (HuT78/P3Z + HEK293/PD-L2)” value [13] was 0.02 µg/mL.
